From patent publication US7097843

molecular target: recombinant HLA-A*0201 refolded with purified human beta2-microglobulin (human); assay: circular dichroism melting of the refolded peptide-HLA-b2m complex (temperature at which 50% is melted)

In order of falling Tm:
1. YMLDLQPET (modifications not checked) [peptide A2.2]  52.5 °C
2. TLGIVCPIC (modifications not checked) [peptide A2.4]  41.5 °C
3. LLMGTLGIVCPIC (modifications not checked) [peptide A2.1/4]  41 °C
